Earlier results as cited in patent publication US7776891B2, “VLA-4 antagonists” (Merck Sharp & Dohme Corp., priority 2004, dated 2010).

Target: T1, VLA-4 (Homo sapiens, UniProt P13612)
T1 construct: host or cells: circulating VLA-4-bearing leukocytes of trial subjects (endogenous)
Conditions: early clinical trials

lymphocytosis (a surrogate marker for blockade of VLA-4 function): observed
receptor occupancy: > 80%
Substance: natalizumab: humanized monoclonal antibody against α4 (Antegren®, Elan/Biogen)
